The values below come from doi:10.1101/2021.03.05.434000 (bioRxiv, 2021).

This data set concerns the molecule itself. In words: crystal structure.

B1: NCAP segment 179-GSQASS-184 (peptide)
peptide: GSQASS
For B1, the binding result is listed as “binds”.

B2: NCAP segment 243-GQTVTK-248 (peptide)
peptide: GQTVTK
Regarding B2, the binding result is recorded as “binds”.

B3: NCAP segment 217-AALALL-222 (peptide)
peptide: AALALL
For the protein B3, the binding result is reported as “binds”.
